Source: patent US20030077273A1
One block for each substance: values may come before it.

Columns and labels:
[1] = target: human CD21 on Raji cells (CD21+ human Burkitt's lymphoma cell line) (human) (UniProt P20023); assay: flow cytometry, control BSA-coated microspheres on Raji cells, 25 microspheres per cell
[2] = target: human CD21 on Raji cells (CD21+ human Burkitt's lymphoma cell line) (human) (UniProt P20023); assay: flow cytometry, control BSA-coated microspheres on Raji cells, 50 microspheres per cell
[3] = target: human CD21 on Raji cells (CD21+ human Burkitt's lymphoma cell line) (human) (UniProt P20023); assay: flow cytometry, control BSA-coated microspheres on Raji cells, 100 microspheres per cell
[4] = target: human CD21 on Raji cells (CD21+ human Burkitt's lymphoma cell line) (human) (UniProt P20023); assay: cell ELISA on Raji cells, anti-mouse IgG-AP
[5] = target: human CD21 on Raji cells (CD21+ human Burkitt's lymphoma cell line) (human) (UniProt P20023); assay: flow cytometry on Raji cells, anti-mouse IgG-FITC
[6] = target: mouse Ig G lambda (isotype of the Ig fusion partner), coated on wells; assay: direct ELISA, MoIg-coated control wells, anti-mouse Ig kappa-AP
[7] = target: recombinant soluble human CD21 (1-2)-Ig fusion protein (human) (UniProt P20023); assay: direct ELISA, sCD21-coated wells, anti-mouse Ig kappa-AP
recombinant soluble human CD21 (1-2)-Ig fusion protein (human), sequence (P20023 21-148): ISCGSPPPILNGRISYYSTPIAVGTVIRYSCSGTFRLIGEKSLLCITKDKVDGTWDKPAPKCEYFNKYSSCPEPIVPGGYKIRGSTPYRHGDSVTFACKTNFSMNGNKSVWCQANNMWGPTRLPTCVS

[8] = target: human CD21 on Raji cells (CD21+ human Burkitt's lymphoma cell line) (human) (UniProt P20023); assay: flow cytometry, competition: C3d beads 100:1 on Raji cells with 30 ng HB5
[9] = target: human CD21 on Raji cells (CD21+ human Burkitt's lymphoma cell line) (human) (UniProt P20023); assay: flow cytometry, competition: C3d beads 100:1 on Raji cells with 15 ng HB5
[10] = target: human CD21 on Raji cells (CD21+ human Burkitt's lymphoma cell line) (human) (UniProt P20023); assay: flow cytometry, competition: C3d beads 25:1 on Raji cells with 30 ng HB5
[11] = target: human CD21 on Raji cells (CD21+ human Burkitt's lymphoma cell line) (human) (UniProt P20023); assay: flow cytometry, competition: C3d beads 50:1 on Raji cells with 15 ng HB5
[12] = target: human CD21 on Raji cells (CD21+ human Burkitt's lymphoma cell line) (human) (UniProt P20023); assay: flow cytometry, competition: C3d beads 50:1 on Raji cells with 30 ng HB5
[13] = target: human CD21 on Raji cells (CD21+ human Burkitt's lymphoma cell line) (human) (UniProt P20023); assay: flow cytometry, competition: C3d beads 25:1 on Raji cells with 15 ng HB5

human CD21 on Raji cells (CD21+ human Burkitt's lymphoma cell line) (human), sequence (P20023 21-1033): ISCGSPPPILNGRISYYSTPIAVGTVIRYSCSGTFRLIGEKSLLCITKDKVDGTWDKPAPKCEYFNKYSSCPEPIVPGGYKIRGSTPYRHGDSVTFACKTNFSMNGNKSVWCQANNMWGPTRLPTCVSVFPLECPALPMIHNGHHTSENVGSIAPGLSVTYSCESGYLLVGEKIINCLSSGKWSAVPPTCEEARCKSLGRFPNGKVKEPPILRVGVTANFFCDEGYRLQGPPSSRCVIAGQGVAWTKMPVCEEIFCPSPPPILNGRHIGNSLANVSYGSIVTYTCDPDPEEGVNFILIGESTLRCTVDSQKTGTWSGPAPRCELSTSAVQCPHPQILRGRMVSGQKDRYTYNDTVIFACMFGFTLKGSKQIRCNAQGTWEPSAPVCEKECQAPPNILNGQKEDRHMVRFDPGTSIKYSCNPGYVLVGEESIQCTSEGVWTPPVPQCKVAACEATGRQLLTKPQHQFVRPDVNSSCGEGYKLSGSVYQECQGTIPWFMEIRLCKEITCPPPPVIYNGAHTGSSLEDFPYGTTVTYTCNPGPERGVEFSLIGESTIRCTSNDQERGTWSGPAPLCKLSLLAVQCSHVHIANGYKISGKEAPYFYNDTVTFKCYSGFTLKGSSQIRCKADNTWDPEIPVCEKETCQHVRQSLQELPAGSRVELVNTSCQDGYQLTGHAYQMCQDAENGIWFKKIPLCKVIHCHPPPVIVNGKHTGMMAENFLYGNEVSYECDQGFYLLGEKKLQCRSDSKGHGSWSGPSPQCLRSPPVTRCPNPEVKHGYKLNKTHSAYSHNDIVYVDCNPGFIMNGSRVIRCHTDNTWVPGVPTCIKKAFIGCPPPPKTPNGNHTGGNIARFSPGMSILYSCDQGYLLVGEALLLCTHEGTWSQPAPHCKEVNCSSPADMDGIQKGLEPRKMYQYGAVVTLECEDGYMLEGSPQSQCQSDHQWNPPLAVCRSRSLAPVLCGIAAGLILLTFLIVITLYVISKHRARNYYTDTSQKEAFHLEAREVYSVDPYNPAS

% Cells Bound [1]: 1.5%
% Cells Bound [2]: 6.83%
% Cells Bound [3]: 22.6%
Substance: BSA coated on 1 um fluorescent microspheres (from UniProt P02769 25-607)

OD 550 nm [4]: 0.072 OD 550 nm
Substance: Mouse IgG (control) (antibody)

Mean Fluorescent Index (MFI) [5]: 123 MFI
OD [6]: 0.096 OD
OD [7]: 0.44 OD
Substance: OKB7 (mouse anti-human CD21, Ortho Diagnostics) (antibody)

Mean Fluorescent Index (MFI) [5]: 85 MFI
OD 550 nm [4]: 0.546 OD 550 nm
Substance: anti-human CD21 mAb BE-5 (BioSource International) (antibody)

OD 550 nm [4]: 1.17 OD 550 nm
Substance: anti-human CD21 mAb Bly-4 (antibody)

Mean Fluorescent Index (MFI) [5]: 117 MFI
% Cells Bound (by C3d beads in presence of mAb) [8]: 67.2%
% Inhibition by mAb [8]: 9.4%
% Cells Bound (by C3d beads in presence of mAb) [9]: 69.3%
% Inhibition by mAb [9]: 6.5%
% Cells Bound (by C3d beads in presence of mAb) [10]: 15.4%
% Inhibition by mAb [10]: 29.7%
% Cells Bound (by C3d beads in presence of mAb) [11]: 42.4%
% Inhibition by mAb [11]: 15.3%
% Cells Bound (by C3d beads in presence of mAb) [12]: 39.8%
% Inhibition by mAb [12]: 20.5%
% Cells Bound (by C3d beads in presence of mAb) [13]: 19.4%
% Inhibition by mAb [13]: 11.8%
Substance: mouse anti-human CD21 mAb HB5 (BD Pharmingen) (antibody)
